{"source": "patent US7572589B2", "about": "“Diagnosis and treatment of infectious diseases through indel-differentiated proteins” (priority 2001, dated 2009)", "key": {"[1]": {"system": "Macrophages infected with L. donovani", "conditions": "cells incubated with inhibitor prior to infection; cited from earlier work"}, "SHP-1 [2]": {"biological_target": "T1, SHP-1 (Homo sapiens, UniProt P29350)", "T1 construct": "made in house", "T1 sequence (P29350 whole entry)": "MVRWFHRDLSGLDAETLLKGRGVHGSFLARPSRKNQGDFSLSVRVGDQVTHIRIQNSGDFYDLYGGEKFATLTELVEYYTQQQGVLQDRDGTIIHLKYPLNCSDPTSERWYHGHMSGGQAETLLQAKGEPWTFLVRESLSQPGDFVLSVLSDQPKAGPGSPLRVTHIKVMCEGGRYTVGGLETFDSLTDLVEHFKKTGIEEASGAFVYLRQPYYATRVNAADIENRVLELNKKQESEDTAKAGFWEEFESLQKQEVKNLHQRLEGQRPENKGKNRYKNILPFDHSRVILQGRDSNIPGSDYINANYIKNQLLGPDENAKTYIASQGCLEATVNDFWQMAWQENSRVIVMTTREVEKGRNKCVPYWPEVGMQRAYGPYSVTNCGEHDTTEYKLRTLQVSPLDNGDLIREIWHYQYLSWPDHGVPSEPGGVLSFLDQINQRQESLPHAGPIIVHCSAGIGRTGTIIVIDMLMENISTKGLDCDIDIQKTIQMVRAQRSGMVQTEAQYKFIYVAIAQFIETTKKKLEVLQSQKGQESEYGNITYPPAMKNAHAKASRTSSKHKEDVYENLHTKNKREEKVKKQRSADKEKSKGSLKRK", "conditions": "cited from earlier work"}, "calmodulin": {"biological_target": "T2, calmodulin (Homo sapiens, UniProt P0DP23)", "T2 construct": "purchased Sigma Chemical Co. (St. Louis, Mo.)", "assay": "Binding of purified EF-1α to calmodulin-agarose", "conditions": "purified proteins", "procedure": "(§1) For binding assays, purified EF-1α from either leishmania or macrophages was incubated with 25 μl (packed volume) of glutathione-agarose beads containing equal amounts of GST-SHP-1. Binding was accomplished by mixing in 100 μl of binding buffer (50 mM HEPES [pH 7.5], 0.15 M NaCl, 1 mM EDTA, 1 mM DTT, 0.01% Triton X-100™ and 1% glycerol) for 2 h at 4° C. The beads were collected by centrifugation and washed four times with binding buffer. Bound EF-1α was eluted by boiling beads in Laemmli sample buffer, separated on SDS-PAGE followed by immunoblotting using anti-EF-1α. Binding of EF-1α to calmodulin-agarose was performed essentially as described above for GST-SHP-1 except that binding buffer contained 0.2 mM CaCl2 instead of EDTA. Also, after incubation, non-bound proteins were removed and affinity beads were assayed for SHP-1 phosphatase activity using pNPP as a substrate. Relative phosphatase activity was assessed by measuring changes in absorbance at 405 nm."}, "SHP-1 [3]": {"biological_target": "T3, SHP-1 (Mus musculus, UniProt P29351)", "T3 construct": "complexes for delivery to macrophages (approximately 2×10^6); endogenous in cells; host or cells: macrophages (RAW 264.7 named in the materials)", "T3 sequence (P29351 whole entry)": "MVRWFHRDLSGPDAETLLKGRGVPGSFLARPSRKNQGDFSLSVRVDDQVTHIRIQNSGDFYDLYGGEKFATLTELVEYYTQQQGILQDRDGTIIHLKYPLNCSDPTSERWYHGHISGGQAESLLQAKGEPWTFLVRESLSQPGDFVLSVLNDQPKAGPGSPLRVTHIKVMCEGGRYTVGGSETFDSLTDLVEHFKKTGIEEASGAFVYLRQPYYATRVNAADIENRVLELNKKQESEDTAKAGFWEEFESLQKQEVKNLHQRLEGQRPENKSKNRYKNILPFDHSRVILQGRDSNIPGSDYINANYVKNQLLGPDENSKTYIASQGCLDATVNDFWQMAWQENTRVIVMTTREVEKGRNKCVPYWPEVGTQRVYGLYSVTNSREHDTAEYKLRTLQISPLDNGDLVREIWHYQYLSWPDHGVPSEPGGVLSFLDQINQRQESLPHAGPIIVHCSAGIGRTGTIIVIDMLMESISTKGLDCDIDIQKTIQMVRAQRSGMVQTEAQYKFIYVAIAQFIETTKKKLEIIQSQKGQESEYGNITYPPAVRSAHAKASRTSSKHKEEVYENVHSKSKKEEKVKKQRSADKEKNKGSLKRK", "assay": "SHP-1 phosphatase activity (pNPP) after Profect-1 delivery of purified EF-1α into macrophages", "type": "cell-based, murine", "conditions": "purified protein introduced into macrophages", "procedure": "Approximately 1 μg of purified EF-1α from leishmania or macrophages or an equivalent amount of BSA were incubated separately with Profect 1™ reagent (Targety Systems, Santee, Calif., USA) in serum free media to prepare protein-Profect-1™ complexes for delivery to macrophages (approximately 2×10^6) according to the manufacturer's instructions. After 2-3 hr of incubation, cells were lysed in buffer C (50 mM Tris [pH 7.5], 1% Triton X-100™ and 0.15M NaCl) containing a cocktail of protease inhibitors for 20 min on ice and incubated with anti-SHP-1 for 2 h end-over-end at 4° C. Immune complexes were recovered using protein A-sepharose and after extensive washing with buffer C, immune complexes were assayed for phosphatase activity using pNPP as a substrate."}, "SHP-1 [4]": {"biological_target": "T1, SHP-1", "assay": "Binding assay of purified EF-1α with GST-SHP-1 glutathione beads, immunoblot", "conditions": "purified proteins, glutathione-sepharose beads", "procedure": "as §1"}}, "data": [{"molecule": "sodium orthovandate", "values": [{"measurement": "phenotype of impaired cell signaling and cell deactivation", "setting": "[1]", "result": "reversed"}]}, {"molecule": "O.O.O.O.O.O.O.O.O.O=C([O-])[C@@H]1[O][Sb]2([O-])([O][Sb]34([OH])[O][C@H]([C@H](O)CO)[C@H]([O]3)[C@H](C(=O)[O-])[O]4)[O][C@H]([C@H](O)CO)[C@@H]1[O]2.[Na+].[Na+].[Na+]", "note": "[sodium stibogluconate]", "values": [{"measurement": "inhibition of SHP-1", "setting": "SHP-1 [2]", "result": "inhibitor of SHP-1"}]}, {"molecule": "macrophage EF-1α: EF-1α purified to near homogeneity from murine macrophages (RAW 264.7) (protein) GKEKTHINIVVIGHVDSGKSTTTGHLIYKCGGIDKRTIEKFEKEAAEMGKGSFKYAWVLDKLKAERERGITIDISLWKFETSKYYVTIIDAPGHRDFIKNMITGTSQADCAVLIVAAGVGEFEAGISKNGQTREHALLAYTLGVKQLIVGVNKMDSTEPPYSQKRYEEIVKEVSTYIKKIGYNPDTVAFVPISGWNGDNMLEPSANMPWFKGWKVTRKDGSASGTTLLEALDCILPPTRPTDKPLRLPLQDVYKIGGIGTVPVGRVETGVLKPGMVVTFAPVNVTTEVKSVEMHHEALSEALPGDNVGFNVKNVSVKDVRRGNVAGDSKNDPPMEAAGFTAQVIILNHPGQISAGYAPVLDCHTAHIACKFAELKEKIDRRSGKKLEDGPKFLKSGDAAIVDMVPGKPMCVESFSDYPPLGRFAVRDMRQTVAVGVIKAVDKKAAGAGKVTKSAQKAQKAK", "values": [{"measurement": "binding to calmodulin", "setting": "calmodulin", "result": "bound directly and with similar affinities"}, {"measurement": "activation of SHP-1", "setting": "SHP-1 [3]", "result": "activation of SHP-1 was not observed"}, {"measurement": "binding to GST-SHP-1", "setting": "SHP-1 [4]", "result": "comparatively little binding"}]}]}
